Laboratory results reported in patent publication US9738911B2, “Methods of producing 7-carbon chemicals via pyruvate and succinate semialdehyde aldol condensation” (INVISTA North America S.a r.l., priority 2012, dated 2017).

Assays:
Format in all cases: biochemical
[1] = Carboxylate reductase activity assay, pimelate to pimelate semialdehyde; conditions: 2 mM pimelate, 1 mM ATP, 1 mM NADPH, enhanced by sfp gene product, room temperature, 20 min; against empty vector control (FIG. 10)
Method: A sequence encoding a HIS-tag was added to the genes from Segniliparus rugosus and Segniliparus rotundus that encode the carboxylate reductases of SEQ ID NOs: 4 and 7, respectively (see FIGS. 7C and 7F), such that N-terminal HIS tagged carboxylate reductases could be produced. Each of the modified genes was cloned into a pET Duet expression vector along with a sfp gene encoding a HIS-tagged phosphopantetheine transferase from Bacillus subtilis, both under the T7 promoter. Each expression vector was transformed into a BL21[DE3] E. coli host and the resulting recombinant E. coli strains were cultivated at 37° C. in a 250 mL shake flask culture containing 50 mL LB media and antibiotic selection pressure, with shaking at 230 rpm. Each culture was induced overnight at 37° C. using an auto-induction media.
The pellet from each induced shake flask culture was harvested via centrifugation. Each pellet was resuspended and lysed via sonication, and the cell debris was separated from the supernatant via centrifugation. […]
Enzyme activity assays (i.e., from pimelate to pimelate semialdehyde) were performed in triplicate in a buffer composed of a final concentration of 50 mM HEPES buffer (pH=7.5), 2 mM pimelate, 10 mM MgCl, 1 mM ATP and 1 mM NADPH. […] The consumption of NADPH was monitored by absorbance at 340 nm.

[2] = Carboxylate reductase activity assay, N7-acetyl-7-aminoheptanoate to N7-acetyl-7-aminoheptanal; conditions: 2 mM N7-acetyl-7-aminoheptanoate, 1 mM ATP, 1 mM NADPH, enhanced by sfp gene product, room temperature, 20 min; against empty vector control (FIG. 12)
Method: The activity of each of the N-terminal His-tagged carboxylate reductases of SEQ ID NOs: 3, 6, and 7 (see Examples 4, and FIGS. 7B, 7E, and 7F) for converting N7-acetyl-7-aminoheptanoate to N7-acetyl-7-aminoheptanal was assayed in triplicate in a buffer composed of a final concentration of 50 mM HEPES buffer (pH=7.5), 2 mM N7-acetyl-7-aminoheptanoate, 10 mM MgCl2, 1 mM ATP, and 1 mM NADPH. The assays were initiated by adding purified carboxylate reductase and phosphopantetheine transferase or the empty vector control to the assay buffer containing the N7-acetyl-7-aminoheptanoate then incubated at room temperature for 20 min. The consumption of NADPH was monitored by absorbance at 340 nm.

[3] = Carboxylate reductase activity assay, pimelate semialdehyde to heptanedial; conditions: 2 mM pimelate semialdehyde, 1 mM ATP, 1 mM NADPH, enhanced by sfp gene product, room temperature, 20 min; against empty vector control (FIG. 13)
Method: The N-terminal His-tagged carboxylate reductase of SEQ ID NO 7 (see Example 4 and FIG. 7F) was assayed using pimelate semialdehyde as substrate. The enzyme activity assay was performed in triplicate in a buffer composed of a final concentration of 50 mM HEPES buffer (pH=7.5), 2 mM pimelate semialdehyde, 10 mM MgCl2, 1 mM ATP and 1 mM NADPH. The enzyme activity assay reaction was initiated by adding purified carboxylate reductase and phosphopantetheine transferase or the empty vector control to the assay buffer containing the pimelate semialdehyde and then incubated at room temperature for 20 min. The consumption of NADPH was monitored by absorbance at 340 nm.

B1: SEQ ID NO 7: Segniliparus rotundus carboxylate reductase (Genbank Accession No. ADG98140.1) (protein, listed as Segniliparus rotundus)
chain: MTQSHTQGPQASAAHSRLARRAAELLATDPQAAATLPDPEVVRQATRPGLRLAERVDAILSGYADRPALGQRSFQTVKDPITGRSSVELLPTFDTITYRELRERATAIASDLAHHPQAPAKPGDFLASIGFISVDYVAIDIAGVFAGLTAVPLQTGATLATLTAITAETAPTLFAASIEHLPTAVDAVLATPSVRRLLVFDYRAGSDEDREAVEAAKRKIADAGSSVLVDVLDEVIARGKSAPKAPLPPATDAGDDSLSLLIYTSGSTGTPKGAMYPERNVAHFWGGVWAAAFDEDAAPPVPAINITFLPLSHVASRLSLMPTLARGGLMHFVAKSDLSTLFEDLKLARPTNLFLVPRVVEMLYQHYQSELDRRGVQDGTREAEAVKDDLRTGLLGGRILTAGFGSAPLSAELAGFIESLLQIHLVDGYGSTEAGPVWRDGYLVKPPVTDYKLIDVPELGYFSTDSPHPRGELAIKTQTILPGYYKRPETTAEVFDEDGFYLTGDVVAQIGPEQFAYVDRRKNVLKLSQGEFVTLAKLEAAYSSSPLVRQLFVYGSSERSYLLAVIVPTPDALKKFGVGEAAKAALGESLQKIARDEGLQSYEVPRDFIIETDPFTVENGLLSDARKSLRPKLKEHYGERLEAMYKELADGQANELRDIRRGVQQRPTLETVRRAAAAMLGASAAEIKPDAHFTDLGGDSLSALTFSNFLHDLFEVDVPVGVIVSAANTLGSVAEHIDAQLAGGRARPTFATVHGKGSTTIKASDLTLDKFIDEQTLEAAKHLPKPADPPRTVLLTGANGWLGRFLALEWLERLAPAGGKLITIVRGKDAAQAKARLDAAYESGDPKLAGHYQDLAATTLEVLAGDFSEPRLGLDEATWNRLADEVDFISHPGALVNHVLPYNQLFGPNVAGVAEIIKLAITTRIKPVTYLSTVAVAAGVEPSALDEDGDIRTVSAERSVDEGYANGYGNSKWGGEVLLREAHDRTGLPVRVFRSDMILAHQKYTGQVNATDQFTRLVQSLLATGLAPKSFYELDAQGNRQRAHYDGIPVDFTAESITTLGGDGLEGYRSYNVFNPHRDGVGLDEFVDWLIEAGHPITRIDDYDQWLSRFETSLRGLPESKRQASVLPLLHAFARPGPAVDGSPFRNTVFRTDVQKAKIGAEHDIPHLGKALVLKYADDIKQLGLL
substrate acceptance, consumption of NADPH by absorbance at 340 nm [1]: accepted pimelate as substrate
substrate acceptance, consumption of NADPH by absorbance at 340 nm [2]: accepted N7-acetyl-7-aminoheptanoate as substrate
substrate acceptance, consumption of NADPH by absorbance at 340 nm [3]: accepted pimelate semialdehyde as substrate
